The test concerns the target Skp1-GST/Cdc4-HA (Saccharomyces cerevisiae, UniProt P52286 1-194; P07834 1-779). As to the kind of experiment: pull-down.

Sequence of Skp1-GST/Cdc4-HA (P52286 whole entry, chain 1 of 2): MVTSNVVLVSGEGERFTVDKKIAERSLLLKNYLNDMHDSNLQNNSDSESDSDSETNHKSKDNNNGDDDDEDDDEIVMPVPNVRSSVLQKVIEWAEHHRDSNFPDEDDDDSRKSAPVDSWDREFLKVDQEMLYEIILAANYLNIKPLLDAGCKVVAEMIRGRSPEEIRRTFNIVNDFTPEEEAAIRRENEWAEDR
Sequence of Skp1-GST/Cdc4-HA (P07834 whole entry, chain 2 of 2): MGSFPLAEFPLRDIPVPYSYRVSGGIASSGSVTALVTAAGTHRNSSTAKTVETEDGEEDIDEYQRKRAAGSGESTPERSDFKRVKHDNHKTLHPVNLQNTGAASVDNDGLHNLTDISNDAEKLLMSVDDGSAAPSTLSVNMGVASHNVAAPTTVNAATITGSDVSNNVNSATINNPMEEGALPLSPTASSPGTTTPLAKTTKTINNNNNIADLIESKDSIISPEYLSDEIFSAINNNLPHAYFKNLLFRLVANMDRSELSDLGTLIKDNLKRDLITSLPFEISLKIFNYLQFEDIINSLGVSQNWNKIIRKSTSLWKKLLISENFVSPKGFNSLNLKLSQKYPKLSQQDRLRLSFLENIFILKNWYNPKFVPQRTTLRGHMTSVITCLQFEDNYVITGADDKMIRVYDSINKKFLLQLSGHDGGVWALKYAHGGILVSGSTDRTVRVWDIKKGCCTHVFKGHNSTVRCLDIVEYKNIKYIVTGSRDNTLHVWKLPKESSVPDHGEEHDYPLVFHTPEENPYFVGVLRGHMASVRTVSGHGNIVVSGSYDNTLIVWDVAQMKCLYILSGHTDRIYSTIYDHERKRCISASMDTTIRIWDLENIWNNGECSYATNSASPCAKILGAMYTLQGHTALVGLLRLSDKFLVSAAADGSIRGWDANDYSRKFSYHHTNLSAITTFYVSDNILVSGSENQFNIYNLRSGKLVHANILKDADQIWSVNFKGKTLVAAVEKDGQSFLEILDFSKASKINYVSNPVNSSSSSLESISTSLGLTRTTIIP

B1: Gpa1-Flag (natural protein, Saccharomyces cerevisiae, UniProt P08539 1-472, looked up)
chain: MGCTVSTQTIGDESDPFLQNKRANDVIEQSLQLEKQRDKNEIKLLLLGAGESGKSTVLKQLKLLHQGGFSHQERLQYAQVIWADAIQSMKILIIQARKLGIQLDCDDPINNKDLFACKRILLKAKALDYINASVAGGSDFLNDYVLKYSERYETRRRVQSTGRAKAAFDEDGNISNVKSDTDRDAETVTQNEDADRNNSSRINLQDICKDLNQEGDDQMFVRKTSREIQGQNRRNLIHEDIAKAIKQLWNNDKGIKQCFARSNEFQLEGSAAYYFDNIEKFASPNYVCTDEDILKGRIKTTGITETEFNIGSSKFKVLDAGGQRSERKKWIHCFEGITAVLFVLAMSEYDQMLFEDERVNRMHESIMLFDTLLNSKWFKDTPFILFLNKIDLFEEKVKSMPIRKYFPDYQGRVGDAEAGLKYFEKIFLSLNKTNKPIYVKRTCATDTQTMKFVLSAVTDLIIQQNLKKIGII
With B1, the binding result is listed as “binds”.

The record behind these values is PMC2919228 (Molecular cell, 2010).
